Test results: US20210277110A1 (Janssen / Centocor, published 2021)
Numbering of substitutions follows the chain as printed. Like-named read-outs stand apart in the source and are kept apart here. Values belong to the binder of their own block, whether it stands above or below them.

Legend:
[1] = target: T1, Full length human PD1 (huPD1) on cells (human, UniProt Q15116 25-288); assay: flow cytometry, PHA-stimulated Jurkat cells
T1 construct: on T cells of human donors in the MLR and CMV assays (functional); also called PD-1 on Jurkat cells
T1 sequence (Q15116 25-288 limits assumed): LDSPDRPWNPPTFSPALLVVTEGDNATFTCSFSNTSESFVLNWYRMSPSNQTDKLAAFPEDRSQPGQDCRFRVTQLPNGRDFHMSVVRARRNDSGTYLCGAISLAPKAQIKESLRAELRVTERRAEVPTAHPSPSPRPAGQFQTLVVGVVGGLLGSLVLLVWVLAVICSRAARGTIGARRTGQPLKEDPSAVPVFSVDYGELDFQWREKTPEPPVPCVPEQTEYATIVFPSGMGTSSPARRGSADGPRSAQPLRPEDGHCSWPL
Description: (§1) Jurkat cells were stimulated overnight with 20 ng/ml of PHA, harvested, washed, and checked for viability. The cells were then incubated at 6-10° C. for 45-60 minutes with various concentrations of test antibodies, washed and incubated at 6-10° C. for 45-60 minutes with FITC-labeled goat anti-human IgG. The cells were washed and fixed with BD Cytofix, refrigerated overnight and analyzed on a MACSQuant flow cytometer. The percentage of PD-1 positive cells at each antibody concentration was plotted vs log of the antibody concentration and EC₅₀ values were generated in Prism.

[2] = target: T2, Extracellular domain of human PD1 (huPD1-ECD) (human, UniProt Q15116 25-169, biotinylated in the ligand inhibition assay (sites not given)); assay: SPR ProteOn, captured mAb, huPD1-ECD analyte
T2 construct: Expressed with a hexahistidine tag or as Fc fusion; also called biotinylated PD-1
T2 sequence (Q15116 25-169 limits assumed): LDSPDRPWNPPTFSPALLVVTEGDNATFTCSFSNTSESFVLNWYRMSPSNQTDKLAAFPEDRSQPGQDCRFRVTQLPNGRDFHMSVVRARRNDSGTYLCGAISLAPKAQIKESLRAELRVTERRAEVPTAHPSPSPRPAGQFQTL

[3] = target: T3, Extracellular domain of cyno PD1 (cPD1-ECD) (Macaca fascicularis (cynomolgus)); assay: SPR ProteOn, cynoPD1-ECD; RANGE low replicate
T3 construct: Expressed with a hexahistidine tag or as Fc fusion; also called cynoPD1-ECD; cynoPD-1-ECD
T3 chain: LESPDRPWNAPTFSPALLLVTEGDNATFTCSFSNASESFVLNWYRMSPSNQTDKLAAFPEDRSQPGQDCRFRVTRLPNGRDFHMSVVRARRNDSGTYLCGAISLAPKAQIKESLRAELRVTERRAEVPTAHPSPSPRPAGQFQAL
Description: (§2) Affinity measurements using Surface Plasmon Resonance (SPR) were performed using a ProteOn XPR36 system. A biosensor surface was prepared by coupling a mixture of anti-IgG Fc modified alginate polymer layer surface of a GLC chip using the manufacturer instructions for amine-coupling chemistry. […] The collected data were processed and fitted to a Langmuir 1:1 binding model. The result for each mAb was reported in the format of kₒₙ (On-rate), koff (Off-rate) and KD (equilibrium dissociation constant).
(§3) STDEV were calculated for 3 or more replicates generated for human and cyno proteins. If less than 3 replicates were calculated, RANGE was indicated. RANGE is defined as the low and high values for the replicates tested. For samples in the Table 10 or Table 11 without value indicated in RANGE or STDEV, only one experiment was performed.

[4] = target: T3, Extracellular domain of cyno PD1 …; assay: SPR ProteOn, captured mAb, cynoPD1-ECD analyte
Description: as §2, §3

[5] = target: T3, Extracellular domain of cyno PD1 …; assay: SPR ProteOn, cynoPD1-ECD; RANGE high replicate
Description: as §2, §3

[6] = target: T2, Extracellular domain of human PD1 …; assay: MSD ligand inhibition, competitor coated cynoPDL1-ECD
[7] = target: T3, Extracellular domain of cyno PD1 …; assay: SPR ProteOn, cynoPD1-ECD; RANGE high replicate; RANGE high replicate
Description: as §2, §3

[8] = target: T2, Extracellular domain of human PD1 …; assay: SPR ProteOn, captured mAb, huPD1-ECD analyte; approximation (chi2 > 20%)
Description: as §2
STDEV were calculated for 3 or more replicates generated for human and cyno proteins. If less than 3 replicates were calculated, RANGE was indicated. RANGE is defined as the low and high values for the replicates tested.

[9] = target: T1, Full length human PD1 (huPD1) on cells; assay: flow cytometry, PHA-stimulated Jurkat cells; remark: listed apart in the source
Description: as §1

[10] = target: T2, Extracellular domain of human PD1 …; assay: SPR ProteOn, huPD1-ECD; RANGE low replicate
Description: as §2
(§4) STDEV were calculated for 3 or more replicates generated for human and cyno proteins. If less than 3 replicates were calculated, RANGE is indicated. RANGE is defined as the low and high values for the replicates tested. For samples without RANGE or STDEV, only one experiment was performed

[11] = target: T2, Extracellular domain of human PD1 …; assay: SPR ProteOn, captured mAb, huPD1-ECD analyte; remark: listed apart in the source
Description: as §2, §4

[12] = target: T2, Extracellular domain of human PD1 …; assay: SPR ProteOn, huPD1-ECD; RANGE high replicate
Description: as §2, §4

[13] = target: T3, Extracellular domain of cyno PD1 …; assay: SPR ProteOn, cynoPD1-ECD; RANGE low replicate
Description: as §2, §4

[14] = target: T3, Extracellular domain of cyno PD1 …; assay: SPR ProteOn, captured mAb, cynoPD1-ECD analyte
Description: as §2, §4

[15] = target: T3, Extracellular domain of cyno PD1 …; assay: SPR ProteOn, cynoPD1-ECD; RANGE high replicate
Description: as §2, §4

[16] = target: T2, Extracellular domain of human PD1 …; assay: MSD ligand inhibition, competitor coated huPDL1-ECD
Description: (§5) The ligand inhibition assay design was MSD (Mescoscale Discovery) based. A MSD plate was directly coated with ligand (cynoPDL1-ECD, huPDL1-ECD or huPDL2-ECD) and incubated overnight at 4° C. The following day, the coating solution was removed and the plate was blocked. […] Depending on the panel of antibodies to be tested, the antibodies were tested as titrations or at a fixed concentration.

[17] = target: T2, Extracellular domain of human PD1 …; assay: MSD ligand inhibition, competitor coated huPDL2-ECD
Description: as §5

[18] = target: T2, Extracellular domain of human PD1 …; assay: MSD ligand inhibition, competitor coated cynoPDL1-ECD; remark: listed apart in the source
Description: as §5

[19] = target: T2, Extracellular domain of human PD1 …; assay: SPR ProteOn, huPD1-ECD; RANGE low replicate; RANGE low replicate
Description: as §2, §4

[20] = target: T2, Extracellular domain of human PD1 …; assay: SPR ProteOn, captured mAb; antigen species not given
[21] = target: T2, Extracellular domain of human PD1 …; assay: SPR ProteOn, huPD1-ECD; RANGE high replicate; RANGE high replicate
Description: as §2, §4

[22] = target: T2, Extracellular domain of human PD1 …; assay: SPR ProteOn, comparison with PD1B114
[23] = target: T3, Extracellular domain of cyno PD1 …; assay: SPR ProteOn, comparison with PD1B114
[24] = target: T3, Extracellular domain of cyno PD1 …; assay: SPR ProteOn, cynoPD1-ECD; RANGE low replicate; RANGE low replicate
Description: as §2, §4

[25] = target: T3, Extracellular domain of cyno PD1 …; assay: SPR ProteOn, cynoPD1-ECD; RANGE high replicate; RANGE high replicate
Description: as §2, §4

[26] = target: T1, Full length human PD1 (huPD1) on cells; assay: cell-based or functional assay
[27] = target: T2, Extracellular domain of human PD1 …; assay: SPR, human PD-1 affinity
Description: as §2

[28] = target: T1, Full length human PD1 (huPD1) on cells; assay: flow cytometry, Jurkat cells
Description: as §1

[29] = target: T2, Extracellular domain of human PD1 …; assay: MSD ligand inhibition, competitor coated huPDL1-ECD; remark: listed apart in the source
Description: as §5

[30] = target: T2, Extracellular domain of human PD1 …; assay: MSD ligand inhibition, competitor coated cynoPDL1-ECD; remark: listed apart in the source
Description: as §5

B2: PD1B70 (antibody, V domains shown)
VH: QVQLVQSGAEVKKPGSSVKVSCKASGGTFSSYAISWVRQAPGQGLEWMGGIIPIFGTANYAQKFQGRVTITADESTSTAYMELSSLRSEDTAVYYCARGYVRATGMLDYWGQGTLVTVSS
VL: EIVLTQSPATLSLSPGERATLSCRASQSVSSYLAWYQQKPGQAPRLLIYDASNRATGIPARFSGSGSGTDFTLTISSLEPEDFAVYYCQQRSNWPLTFGQGTKVEIK
notes: Tested as IgG2sigma/kappa; also called PD1H107/PH9L3
- EC50 [9]: 0.69 to 1.32 mg/L
- EC50 [1]: 0.69 mg/L
- koff [10]: 0.0341 s⁻¹
- kon [10]: 737000 M⁻¹ s⁻¹
- Kd [2]: 101 nM
- koff [2]: 0.0418 s⁻¹
- kon [2]: 415000 M⁻¹ s⁻¹
- Kd [11]: 45.4 nM
- koff [11]: 0.0349 s⁻¹
- kon [11]: 769000 M⁻¹ s⁻¹
- koff [12]: 0.0356 s⁻¹
- kon [12]: 800000 M⁻¹ s⁻¹
- Kd [3]: 109 nM
- koff [3]: 0.0245 s⁻¹
- kon [3]: 199000 M⁻¹ s⁻¹
- Kd [13]: 79.6 nM
- koff [13]: 0.0218 s⁻¹
- kon [13]: 225000 M⁻¹ s⁻¹
- Kd [4]: 123 nM
- koff [4]: 0.0258 s⁻¹
- kon [4]: 210000 M⁻¹ s⁻¹
- Kd [5]: 138 nM
- koff [5]: 0.0275 s⁻¹
- kon [5]: 225000 M⁻¹ s⁻¹
- Kd [14]: 89 nM
- koff [14]: 0.0222 s⁻¹
- kon [14]: 250000 M⁻¹ s⁻¹
- Kd [15]: 100 nM
- koff [15]: 0.0226 s⁻¹
- kon [15]: 274000 M⁻¹ s⁻¹
- IC50 [16]: 0.04 mg/L
- IC50 [17]: 0.059 mg/L
- IC50 [18]: 0.01 to 0.021 mg/L
- percentage ligand not blocked at 1 µg/ml [6]: 6%
- percentage ligand not blocked at 10 µg/ml [6]: 6%
- Kd [19]: 42.6 nM
- Kd [20]: 166 nM
- koff [20]: 0.0304 s⁻¹
- kon [20]: 184000 M⁻¹ s⁻¹
- Kd [21]: 48.3 nM

B3: PD1B11 (antibody, V domains shown)
VH: QVQLVQSGAEVKKPGSSVKVSCKASGGTFSSYAISWVRQAPGQGLEWMGGIIPIFGTANYAQKFQGRVTITADESTSTAYMELSSLRSEDTAVYYCARPGLAAAYDTGSLDYWGQGTLVTVSS
VL: B2 VL
notes: Tested as IgG2sigma/kappa; also called PD1H3/PH9L3
- fold tighter affinity compared to PD1B114 [22]: ~3 fold
- fold tighter affinity compared to PD1B114 [23]: ~2 fold
- EC50 [9]: 0.03 to 0.24 mg/L
- EC50 [1]: 0.05 mg/L
- Kd [10]: 9.6 nM
- kon [10]: 884000 M⁻¹ s⁻¹
- koff [2]: 0.00852 s⁻¹
- kon [2]: 516000 M⁻¹ s⁻¹
- Kd [11]: 9.7 nM
- koff [11]: 0.00905 s⁻¹
- kon [11]: 933000 M⁻¹ s⁻¹
- Kd [12]: 9.81 nM
- Kd [3]: 27.7 nM
- koff [3]: 0.008 s⁻¹
- kon [3]: 285000 M⁻¹ s⁻¹
- Kd [13]: 26.8 nM
- kon [13]: 349000 M⁻¹ s⁻¹
- Kd [4]: 31.3 nM
- koff [4]: 0.00917 s⁻¹
- kon [4]: 293000 M⁻¹ s⁻¹
- Kd [5]: 35.1 nM
- Kd [14]: 26.9 nM
- koff [14]: 0.00942 s⁻¹
- kon [14]: 350000 M⁻¹ s⁻¹
- Kd [15]: 27.1 nM
- kon [15]: 350000 M⁻¹ s⁻¹
- IC50 [16]: 0.019 mg/L
- IC50 [17]: 0.029 mg/L
- IC50 [18]: 0.017 to 0.018 mg/L
- percentage ligand not blocked at 1 µg/ml [6]: 5%
- percentage ligand not blocked at 10 µg/ml [6]: 5%
- koff [19]: 0.00867 s⁻¹
- Kd [20]: 19.2 nM
- koff [20]: 0.00896 s⁻¹
- kon [20]: 468000 M⁻¹ s⁻¹
- koff [24]: 0.00938 s⁻¹
- koff [21]: 0.00943 s⁻¹
- kon [21]: 982000 M⁻¹ s⁻¹
- koff [7]: 0.01 s⁻¹
- kon [7]: 301000 M⁻¹ s⁻¹
- koff [25]: 0.00946 s⁻¹
- Kd [8]: ~17 nM

B5: PD1B131 (antibody, V domains shown)
VH: EVQLVESGGGLVQPGGSLRLSCAASGFAFSRYDMSWIRLAPGKGLESVAYISGGGANTYYLDNVKGRFTISRDNAKNSLYLQMNSLRAEDTAVYYCASPYLSYFDVWGQGTLVTVSS
VL: EIVMTQSPATLSVSPGERATLSCRASQSLSDYLHWYQQKPGQAPRLLIKSASQSISGIPARFSGSGSGTEFTLTISSLQSEDFAVYYCQNGHSFPYTFGQGTKLEIK
notes: Humanized variant of PD1B28; also called PD1H130/PD1L62
- Kd [27]: 0.127 nM
- koff [27]: 0.000105 s⁻¹
- kon [27]: 827000 M⁻¹ s⁻¹
- Jurkat cell binding relative to PD1B28 [28]: 100%
- IC50 [29]: 0.079 mg/L
- IC50 [30]: 0.096 mg/L

B6: PD1B132 (antibody, IgG2, V domains shown)
VH: B5 VH with I37V, L39Q
VL: B5 VL
notes: Humanized variant of PD1B28; also called PD1H129/PD1L62
- CMV EC50, nM (IFN-γ induction) [26]: 0.07 nM
- Kd [27]: 0.096 nM
- koff [27]: 8.8e-05 s⁻¹
- kon [27]: 914000 M⁻¹ s⁻¹
- Jurkat cell binding relative to PD1B28 [28]: 100%
- IC50 [29]: 0.055 mg/L
- IC50 [30]: 0.079 mg/L

The next lines start with the values.

- EC50 [1]: 0.08 mg/L
- koff [2]: 0.0062 s⁻¹
- kon [2]: 532000 M⁻¹ s⁻¹
- Kd [3]: 10.9 nM
- koff [3]: 0.00348 s⁻¹
- kon [3]: 304000 M⁻¹ s⁻¹
- Kd [4]: 11.2 nM
- koff [4]: 0.00357 s⁻¹
- kon [4]: 320000 M⁻¹ s⁻¹
- Kd [5]: 11.4 nM
- percentage ligand not blocked at 1 µg/ml [6]: 7%
- percentage ligand not blocked at 10 µg/ml [6]: 7%
- koff [7]: 0.00365 s⁻¹
- kon [7]: 336000 M⁻¹ s⁻¹
- Kd [8]: ~12 nM
B1: PD1B149 (antibody, human IgG2, kappa, V domains shown)
VH: B3 VH with S109N
VL: EIVLTQSPATLSLSPGERATLSCRASQSVRNYLAWYQQKPGQAPRLLIHDASNRATGIPARFSGSGSGTDFTLTISSLEPEDFAVYYCQQRNYWPLTFGQGTKVEIKR
notes: IgG2sigma/kappa; VH 41, VL 50; also called PD1H24/PD1L128

- CMV EC50, nM (IFN-γ induction) [26]: 1.64 nM
- Kd [11]: 1.23 nM
- koff [11]: 0.00152 s⁻¹
- kon [11]: 1.23e+06 M⁻¹ s⁻¹
- Kd [13]: 0.91 nM
- kon [13]: 430000 M⁻¹ s⁻¹
- Kd [14]: 0.94 nM
- koff [14]: 0.000408 s⁻¹
- kon [14]: 432000 M⁻¹ s⁻¹
- Kd [15]: 0.97 nM
- kon [15]: 434000 M⁻¹ s⁻¹
- koff [24]: 0.000396 s⁻¹
- koff [25]: 0.000419 s⁻¹
B4: PD1B195 (antibody, V domains shown)
VH: B3 VH with G56D
VL: B2 VL with S30D, S92E, N93Y
notes: also called PD1H170/PD1L67
